Reference: patent US20250206841A1 (ADEPT THERAPEUTICS, published 2025)

Assays:
[1] = target: T1, human Trop-2 expressed on cell surface (human, UniProt P09758 27-323); assay: cell-based or functional assay
T1 sequence (looked up): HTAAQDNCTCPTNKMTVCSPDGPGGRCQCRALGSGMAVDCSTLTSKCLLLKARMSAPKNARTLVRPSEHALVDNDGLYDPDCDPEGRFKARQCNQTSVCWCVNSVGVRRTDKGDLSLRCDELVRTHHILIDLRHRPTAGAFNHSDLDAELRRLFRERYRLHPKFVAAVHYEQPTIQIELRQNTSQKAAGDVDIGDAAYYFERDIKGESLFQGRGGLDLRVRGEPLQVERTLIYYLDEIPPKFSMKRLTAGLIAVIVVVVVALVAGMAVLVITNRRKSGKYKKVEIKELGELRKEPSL

[2] = target: T1, human Trop-2 expressed on cell surface; assay: cell-based or functional assay; remark: listed apart in the source
[3] = target: T1, human Trop-2 expressed on cell surface; assay: flow cytometry, MDA-MB-231-GFP cells
Procedure: Cells were then resuspended in FACS buffer (1×DPBS/1% FBS) at 10⁶/ml concentration. One hundred microliter (100 μl) of cells were aliquoted into a single well in 96 well plates. The antibodies to be tested were serially diluted at 1:3 fold starting at 15 μg/mL and were then added into each well. The antibodies were mixed with cells and the mixtures were incubated on ice for 1 hour. After washing with FACS buffer, one hundred microliter (100 μl) of 1:400 diluted PE-conjugated anti-human Fc secondary antibody (Jackson Immuno Research) was added into each well and incubated for 30 minutes on ice. After washing with FACS buffer, stained cells were resuspended at diluted 7-ADD (Biolegend, used at 1:100 dilution) and analyzed on Guava 11HT or 5HT (Luminex). Data was analyzed using Flowjo software. EC₅₀ values were calculated using GraphPad Prism. Sacitnzurnab govitecan was used as positive control. Anti-HEL.hIgG1 was used as isotype negative control. Similar assay was performed using MCF-7 cells (known to express human Trop-2).

[4] = target: T1, human Trop-2 expressed on cell surface; assay: cell-based or functional assay; remark: listed apart in the source
[5] = target: T2, rat Trop-2 (rat, UniProt Q6P9Z6 25-270, limits assumed); assay: ELISA, similar to Table 24
T2 sequence (looked up): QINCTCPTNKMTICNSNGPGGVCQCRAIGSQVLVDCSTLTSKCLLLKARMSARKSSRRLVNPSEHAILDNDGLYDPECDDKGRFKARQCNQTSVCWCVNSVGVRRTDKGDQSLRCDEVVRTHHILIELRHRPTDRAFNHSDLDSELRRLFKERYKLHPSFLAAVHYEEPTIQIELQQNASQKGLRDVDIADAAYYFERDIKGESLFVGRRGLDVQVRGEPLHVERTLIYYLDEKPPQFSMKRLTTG
Procedure: Purified antibodies were tested by ELISA to confirm their binding and affinity against human and cynomolgus Trop-2-His protein. Briefly, 96-well Maxisorp plates (Nunc) were coated with 100 μl/well of 0.5 μg/ml human (Kactus Cat #TRP-HM121, or Sino Biological, Cat #10428-HO8H) or cynomolgus Trop-2 protein (Kactus Cat #TRP-CM121, or Sino Biological, Cat #90893-CO8H) diluted in 1×PBS (GIBCO) overnight at 4° C. Plates were washed four times with 300 μl/well washing buffer (1×PBST, diluted from 20×PBST (Thermo Scientific) with distilled water)) and then blocked with 300 μl/well of blocking buffer (1×PBST/3% BSA (BSA, Sigma)) for 2 hours at RT on plate shaker at 100 rpm. Plates were washed and added with 100 μl/well of testing antibodies, which were serial diluted with assay buffer (PBST/1% BSA). The antibodies were incubated at room temperature for 2 hours on plate shaker at 100 rpm. Plates were washed. One hundred microliters (100 μl) of 1:10,000 diluted horseradish peroxidase (HRP) conjugated anti-hIgG antibody (Jackson Immuno Research) was added into each well and incubated at room temperature for 1 hour on plate shaker at 100 rpm. Plates were washed and added with 100 μl/well TMB substrate for color development in dark at room temperature for up to 10 minutes. After addition of 50 μl/well of stop solution (1N H₂SO₄), plates were read at 450 nm on a plate reader (SpectraMax M5). EC₅₀ values were calculated using Graphpad Prism. Sacituzumab govitecan, was used as positive control. Anti-HEL.hIgG1 was used as isotype control.
Similar assays were performed to test whether the exemplary antibodies of the present disclosure bind to human Trop-1 (EpCAM) or mouse Trop-2 (Kactus, Cat #TRP-MM121) or rat Trop-2 (kactus, Cat #TRP_RM121). No binding of the exemplary antibodies of the present disclosure to human Trop-1 (EpCAM) or mouse or rat Trop-2 has been detected.

[6] = target: T3, human Trop-2-His protein (human, UniProt P09758 27-274); assay: BLI (Gator Plus), purified Ab on HFC probe
T3 construct: extracellular domain; Assay paragraphs say only 'Trop-2-His'; also called hTrop-2; Kactus Cat #TRP-HM121; not shown: His tag
T3 sequence (looked up): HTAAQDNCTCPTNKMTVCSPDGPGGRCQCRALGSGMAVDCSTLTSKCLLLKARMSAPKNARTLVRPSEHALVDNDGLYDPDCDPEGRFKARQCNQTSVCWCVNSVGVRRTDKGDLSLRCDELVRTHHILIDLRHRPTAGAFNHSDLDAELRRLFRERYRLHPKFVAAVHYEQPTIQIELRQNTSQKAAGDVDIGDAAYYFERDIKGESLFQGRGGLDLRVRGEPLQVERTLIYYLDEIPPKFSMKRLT
Procedure: The affinity of the binding of the exemplary anti-Trop-2 antibodies of the present disclosure were determined. Assay was performed using Gator Plus according to the protocol recommended by Gator Bio Inc.. Briefly, human Trop-2-His (Kactus) was 1:4 fold serially diluted starting at 1 μg/ml. After three times of regeneration and neutralization of HFC probe, 1 μg/ml of antibody to be tested in Q buffer was immobilized onto HFC probe. […] The association and dissociation of human Trop-2-His antigen from antibody was measured on BLI machine Gator Plus. Affinity was calculated using Gator Bio analysis software. Blank control was used for reference subtraction. Sacituzumab govitecan was used as positive control.

Binder	Internalization %, MCF-7, 0.25 µg/ml, 1 h [1]	Internalization %, MCF-7, 0.25 µg/ml, 2 h [1]	Internalization %, MCF-7, 0.25 µg/ml, 4 h [1]	Internalization %, MCF-7, 0.5 µg/ml, 1 h [1]	Internalization %, MCF-7, 0.5 µg/ml, 2 h [1]	Internalization %, MCF-7, 0.5 µg/ml, 4 h [1]	EC50 of ADCC (NFAT-CD16 reporter), MCF-7 [2]	EC50 of ADCC (NFAT-CD16 reporter), MDA-MB-231 [2]	EC50 [3]	Internalization %, MDA-MB-231, 0.25 µg/ml, 2 h [4]	Internalization %, MDA-MB-231, 0.25 µg/ml, 4 h [4]	Internalization %, MDA-MB-231, 0.5 µg/ml, 2 h [4]	Internalization %, MDA-MB-231, 0.5 µg/ml, 4 h [4]	Internalization %, MDA-MB-231, 1 µg/ml, 2 h [4]	Internalization %, MDA-MB-231, 1 µg/ml, 4 h [4]	Internalization %, MDA-MB-231, 2 µg/ml, 2 h [4]	Internalization %, MDA-MB-231, 2 µg/ml, 4 h [4]	binding result [5]	Kd [6]	koff [6]	further results
74F11/15F5 (antibody, human IgG1, V domains shown, LEM construct: VH + rabbit IgG CH1 + human IgG1 CH2-CH3) VH: QEQLKESGGGLVQPGGSLKLSCKASGFDFNNYGMSWVRQAPGKGLEWIAYIYPAFHNTYYANWVNGRFTISSDNAQNTVDLQLNSLTAADTATYFCARDAGSTDYNFNLWGPGTLVTVSS VL: DVVMTQTPASVEAAVGGTVTIKCQASEDIERYLAWYQQKPGQPPKLLIYEASKLPSGVSSRFSGSGYGTEFTLTISGVECADAATYYCQQALTIGYVDNPFGGGSEVVVK	22%	35%	64%	22%	54%	50%	0.27 nM	0.09 nM	0.02 nM	42%	52%	37%	45%	42%	48%	39%	46%	no binding	0.01 nM	9e-06 s⁻¹	kon [6]: 707000 M⁻¹ s⁻¹
9D7 (antibody, V domains shown, Rabbit-derived clone; LEM construct: VH + rabbit IgG CH1 + human IgG1 CH2-CH3) VH: QSLEESGGDLVQPGASLTLTCKASGFDLNNYSILWVRQAPGKGLEWIGCIYISGGSTYYANWAKGRFAISKTSSTTVTLQMTSLTAADTATYFCARDDGTASYYLNLWGPGTLVTVSS VL: YDMTQTPASVSEPVGGTVTIKCQASEDIYKLLAWYQQKPGQPPKLLIYAASDLESGVPSRFKGRGSGTDYTLTISDLECADAATYYCQQAYTIGNIDNSFGGGTEVVVK	42%	75%	69%	46%	60%	65%	0.28 nM	0.09 nM	0.03 nM	42%	52%	47%	55%	43%	54%	42%	49%	no binding	< 0.002 nM	< 1e-06 s⁻¹	kon [6]: 432000 M⁻¹ s⁻¹
10A9 (antibody, V domains shown, Rabbit-derived clone; LEM construct: VH + rabbit IgG CH1 + human IgG1 CH2-CH3) VH: QSLEESGGDLVQPGASLTLTCKASGFDLNNYAMLWVRQAPGKGLEWIGCIYISGGTTYFASWATGRFAISKTSSTTVTLQMTSLTAADTATYFCARDDGTTSYYLNLWGPGTLVTVSS VL: YDMTQTPASVSAAVGGTVTIKCQASEDIYSLLAWYQQKPGQPPKLLIYGASNLESGVPSRFKGSGSGTEYTLTISDLECDDAATYYCQQAYTIGNIDNAFGGGTEVVVK	15%	33%	45%	26%	39%	49%	0.32 nM	0.06 nM	0.04 nM	54%	57%	47%	53%	40%	55%	38%	49%	no binding	0.18 nM	8.2e-05 s⁻¹	kon [6]: 448000 M⁻¹ s⁻¹
9D7-2 (antibody, V domains shown) VH: QSLEESGGDLVQPGASLTLTCKASGFDLNNYSILWVRQAPGKGLEWIGSIYISGGSTYYANWAKGRFAISKTSSTTVTLQMTSLTAADTATYFCARDDGTASYYLNLWGPGTLVTVSS VL: YDMTQTPASVSEPVGGTVTIKCQASEDIYKLLAWYQQKPGQPPKLLIYAASDLESGVPSRFKGRGSGTDYTLTISDLEAADAATYYCQQAYTIGNIDNSFGGGTEVVVK	29%	42%	57%	28%	42%	52%	0.23 nM	0.11 nM	0.1 nM	52%	63%	49%	58%	51%	62%	48%	59%	no binding	2.86 nM	0.00126 s⁻¹	kon [6]: 438000 M⁻¹ s⁻¹
